# Results reported in patent publication US20180072798A1.
# B1: 3C H5L1 antibody (antibody, V domains shown)
# VH: EVQLVQSGPDVEKPGASVKVSCKASGYTFTSNYIHWVRQAPGQGLEWMGVINPRGGSTASAQKFQGRITMTRDTSTSTVYMELSSLRSDDTAVYYCARGGRALFYDSYTTPRDGGSWWFDPWGQGSLVTVSS
# VL: DIQLTQSPSSLSASVGDRVTFTCQASQDIRKYLNWYQQKPGKAPKLLIYDASNLKTGVPSRFSGSGSGTDFTFTISSLQPEDVATYYCQQFDDLPITFGQGTRLQIK
# Key:
# [1] = target: DENV-2 virus particle, strain TSV01, live (dengue virus serotype 2 (DENV-2), strain TSV01); assay: cell-based or functional assay
# [2] = target: DENV-1 virus particle, strain 05K2916 (167), live (dengue virus serotype 1 (DENV-1), strain 05K2916); assay: cell-based or functional assay
# [3] = target: DENV-3 virus, strain VN32/96 (dengue virus serotype 3 (DENV-3), strain VN32/96); assay: cell-based or functional assay
# [4] = target: DENV-4 virus particle, strain 2641Y08, live (dengue virus serotype 4 (DENV-4), strain 2641Y08); assay: cell-based or functional assay
# [5] = target: DENV-2 (TSV01) wildtype E protein, soluble part, V5 tag, from S2 cells (dengue virus serotype 2 (DENV-2), strain TSV01); assay: sandwich ELISA, V5-tagged soluble E captured by anti-V5; the reference itself
# [6] = target: DENV-2 (TSV01) E protein mutant G100A, soluble part, V5 tag, from S2 cells (dengue virus serotype 2 (DENV-2), strain TSV01); assay: sandwich ELISA, V5-tagged soluble E captured by anti-V5
# [7] = target: DENV-2 (TSV01) E protein mutant S274A, soluble part, V5 tag, from S2 cells (dengue virus serotype 2 (DENV-2), strain TSV01); assay: as above
# [8] = target: DENV-2 (TSV01) E protein mutant Q167A, soluble part, V5 tag, from S2 cells (dengue virus serotype 2 (DENV-2), strain TSV01); assay: as above
# [9] = target: DENV-2 (TSV01) E protein mutant T155A, soluble part, V5 tag, from S2 cells (dengue virus serotype 2 (DENV-2), strain TSV01); assay: as above
# [10] = target: DENV-2 (TSV01) E protein mutant E49A, soluble part, V5 tag, from S2 cells (dengue virus serotype 2 (DENV-2), strain TSV01); assay: as above
# [11] = target: DENV-2 (TSV01) E protein mutant K64A, soluble part, V5 tag, from S2 cells (dengue virus serotype 2 (DENV-2), strain TSV01); assay: as above
# [12] = target: DENV-2 (TSV01) E protein mutant K295A, soluble part, V5 tag, from S2 cells (dengue virus serotype 2 (DENV-2), strain TSV01); assay: as above
# [13] = target: DENV-2 (TSV01) E protein mutant N203A, soluble part, V5 tag, from S2 cells (dengue virus serotype 2 (DENV-2), strain TSV01); assay: as above
# [14] = target: DENV-2 (TSV01) E protein mutant S169A, soluble part, V5 tag, from S2 cells (dengue virus serotype 2 (DENV-2), strain TSV01); assay: as above
# [15] = target: DENV-2 (TSV01) E protein mutant R323A, soluble part, V5 tag, from S2 cells (dengue virus serotype 2 (DENV-2), strain TSV01); assay: as above
# [16] = target: DENV-2 (TSV01) E protein mutant Q77A, soluble part, V5 tag, from S2 cells (dengue virus serotype 2 (DENV-2), strain TSV01); assay: as above
# [17] = target: DENV-2 (TSV01) E protein mutant N134A, soluble part, V5 tag, from S2 cells (dengue virus serotype 2 (DENV-2), strain TSV01); assay: as above
# [18] = target: DENV-2 (TSV01) E protein mutant F108A, soluble part, V5 tag, from S2 cells (dengue virus serotype 2 (DENV-2), strain TSV01); assay: as above
# [19] = target: DENV-2 (TSV01) E protein mutant N153A, soluble part, V5 tag, from S2 cells (dengue virus serotype 2 (DENV-2), strain TSV01); assay: as above
# [20] = target: DENV-2 (TSV01) E protein mutant W101A, soluble part, V5 tag, from S2 cells (dengue virus serotype 2 (DENV-2), strain TSV01); assay: as above
# [21] = target: DENV-2 (TSV01) E protein mutant W391A, full length, expressed with prM in HEK293 cells (dengue virus serotype 2 (DENV-2), strain TSV01); assay: flow cytometry on transfected HEK293 cells, normalised to 3H5 staining and to wt
# [22] = target: DENV-2 (TSV01) E protein mutant N153A, full length, expressed with prM in HEK293 cells (dengue virus serotype 2 (DENV-2), strain TSV01); assay: as above
# [23] = target: DENV-2 (TSV01) E protein mutant E202A, full length, expressed with prM in HEK293 cells (dengue virus serotype 2 (DENV-2), strain TSV01); assay: as above
# [24] = target: DENV-2 (TSV01) E protein mutant R323A, full length, expressed with prM in HEK293 cells (dengue virus serotype 2 (DENV-2), strain TSV01); assay: as above
# [25] = target: DENV-2 (TSV01) E protein mutant W101A, full length, expressed with prM in HEK293 cells (dengue virus serotype 2 (DENV-2), strain TSV01); assay: as above
# [26] = target: DENV-2 (TSV01) E protein mutant Q77A, full length, expressed with prM in HEK293 cells (dengue virus serotype 2 (DENV-2), strain TSV01); assay: as above
# [27] = target: DENV-2 (TSV01) E protein mutant N134A, full length, expressed with prM in HEK293 cells (dengue virus serotype 2 (DENV-2), strain TSV01); assay: as above
# [28] = target: DENV-2 (TSV01) E protein mutant N203A, full length, expressed with prM in HEK293 cells (dengue virus serotype 2 (DENV-2), strain TSV01); assay: as above
# [29] = target: DENV-2 (TSV01) E protein mutant Q200A, full length, expressed with prM in HEK293 cells (dengue virus serotype 2 (DENV-2), strain TSV01); assay: as above
# [30] = target: DENV-2 (TSV01) E protein mutant I162A, full length, expressed with prM in HEK293 cells (dengue virus serotype 2 (DENV-2), strain TSV01); assay: as above
# [31] = target: DENV-2 (TSV01) E protein mutant S169A, full length, expressed with prM in HEK293 cells (dengue virus serotype 2 (DENV-2), strain TSV01); assay: as above
# [32] = target: DENV-2 (TSV01) E protein mutant T155A, full length, expressed with prM in HEK293 cells (dengue virus serotype 2 (DENV-2), strain TSV01); assay: as above
# [33] = target: DENV-2 (TSV01) E protein mutant E161A, full length, expressed with prM in HEK293 cells (dengue virus serotype 2 (DENV-2), strain TSV01); assay: as above
# [34] = target: DENV-2 (TSV01) E protein mutant K295A, full length, expressed with prM in HEK293 cells (dengue virus serotype 2 (DENV-2), strain TSV01); assay: as above
# [35] = target: DENV-2 (TSV01) E protein mutant K310A, full length, expressed with prM in HEK293 cells (dengue virus serotype 2 (DENV-2), strain TSV01); assay: as above
# [36] = target: DENV-2 (TSV01) E protein mutant K122A, full length, expressed with prM in HEK293 cells (dengue virus serotype 2 (DENV-2), strain TSV01); assay: as above
# [37] = target: DENV-2 (TSV01) E protein mutant F392A, full length, expressed with prM in HEK293 cells (dengue virus serotype 2 (DENV-2), strain TSV01); assay: as above
# [38] = target: DENV-2 (TSV01) E protein mutant E49A, full length, expressed with prM in HEK293 cells (dengue virus serotype 2 (DENV-2), strain TSV01); assay: as above
# [39] = target: DENV-2 (TSV01) wildtype E protein, full length, expressed with prM in HEK293 cells (dengue virus serotype 2 (DENV-2), strain TSV01); assay: flow cytometry on transfected HEK293 cells; the reference itself
binder,measurement,setting,value
B1,"EC50, plaque reduction neutralization test (PRNT) on BHK-21 cells",[1],0.001 µg/mL
same,"EC50, plaque reduction neutralization test (PRNT) on BHK-21 cells",[2],0.6 µg/mL
same,"EC50, plaque reduction neutralization test (PRNT) on BHK-21 cells",[3],0.5 µg/mL
same,"EC50, plaque reduction neutralization test (PRNT) on BHK-21 cells",[4],0.07 µg/mL
same,relative binding (normalised to wt E protein) (ratio to wt E protein),[5],1
same,relative binding (normalised to wt E protein) (ratio to wt E protein),[6],0.186
same,relative binding (normalised to wt E protein) (ratio to wt E protein),[7],0.0859
same,relative binding (normalised to wt E protein) (ratio to wt E protein),[8],0.774
same,relative binding (normalised to wt E protein) (ratio to wt E protein),[9],0.839
same,relative binding (normalised to wt E protein) (ratio to wt E protein),[10],0.695
same,relative binding (normalised to wt E protein) (ratio to wt E protein),[11],0.444
same,relative binding (normalised to wt E protein) (ratio to wt E protein),[12],0.189
same,relative binding (normalised to wt E protein) (ratio to wt E protein),[13],0.72
same,relative binding (normalised to wt E protein) (ratio to wt E protein),[14],0.784
same,relative binding (normalised to wt E protein) (ratio to wt E protein),[15],0.334
same,relative binding (normalised to wt E protein) (ratio to wt E protein),[16],0.747
same,relative binding (normalised to wt E protein) (ratio to wt E protein),[17],0.221
same,relative binding (normalised to wt E protein) (ratio to wt E protein),[18],0.806
same,relative binding (normalised to wt E protein) (ratio to wt E protein),[19],0.806
same,relative binding (normalised to wt E protein) (ratio to wt E protein),[20],0.242
same,relative binding (normalised to wt E protein) (ratio to wt E protein),[21],0.144
same,relative binding (normalised to wt E protein) (ratio to wt E protein),[22],0.535
same,relative binding (normalised to wt E protein) (ratio to wt E protein),[23],2.02
same,relative binding (normalised to wt E protein) (ratio to wt E protein),[24],0.416
same,relative binding (normalised to wt E protein) (ratio to wt E protein),[25],0.165
same,relative binding (normalised to wt E protein) (ratio to wt E protein),[26],0.38
same,relative binding (normalised to wt E protein) (ratio to wt E protein),[27],1.08
same,relative binding (normalised to wt E protein) (ratio to wt E protein),[28],0.719
same,relative binding (normalised to wt E protein) (ratio to wt E protein),[29],0.394
same,relative binding (normalised to wt E protein) (ratio to wt E protein),[30],0.242
same,relative binding (normalised to wt E protein) (ratio to wt E protein),[31],0.963
same,relative binding (normalised to wt E protein) (ratio to wt E protein),[32],0.621
same,relative binding (normalised to wt E protein) (ratio to wt E protein),[33],1.07
same,relative binding (normalised to wt E protein) (ratio to wt E protein),[34],1.04
same,relative binding (normalised to wt E protein) (ratio to wt E protein),[35],0.15
same,relative binding (normalised to wt E protein) (ratio to wt E protein),[36],0.27
same,relative binding (normalised to wt E protein) (ratio to wt E protein),[37],0.133
same,relative binding (normalised to wt E protein) (ratio to wt E protein),[38],0.996
same,relative binding (normalised to wt E protein) (ratio to wt E protein),[39],1
